Data as given in patent EP4768505A1 (Shenzhen Genocury Biotech Co., Ltd, dated 2026).

Experiments:
[1] = target: Human CD79B Protein, His Tag (MALS verified), Cat. No. #CDB-H52H3-1mg, ACRO (human) (UniProt P40259); experiment: ELISA on coated antigen, anti-myc detection; 2ng antibody added
[2] = target: T1, Mouse CD79A+CD79B antigen (mouse) (UniProt P11911); experiment: as above
T1 sequence (looked up) 1: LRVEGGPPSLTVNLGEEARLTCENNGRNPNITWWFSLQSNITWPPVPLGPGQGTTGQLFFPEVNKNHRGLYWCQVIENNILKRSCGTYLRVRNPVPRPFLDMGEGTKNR
T1 sequence (looked up) 2: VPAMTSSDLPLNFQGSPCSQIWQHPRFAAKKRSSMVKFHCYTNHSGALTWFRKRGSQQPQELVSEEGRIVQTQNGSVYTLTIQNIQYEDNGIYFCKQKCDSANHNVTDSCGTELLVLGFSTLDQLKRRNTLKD

[3] = target: Human CD79A+CD79B antigen (human) (UniProt P11912); experiment: as above
[4] = target: T2, Mouse CD79B antigen (mouse, UniProt P15530 26-158, limits assumed); experiment: ELISA on coated antigen, anti-myc detection
T2 sequence (looked up): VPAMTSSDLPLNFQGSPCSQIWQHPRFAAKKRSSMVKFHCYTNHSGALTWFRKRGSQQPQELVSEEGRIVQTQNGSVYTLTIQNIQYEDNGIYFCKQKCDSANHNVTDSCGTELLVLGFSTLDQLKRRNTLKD

[5] = target: Human CD79B Protein, His Tag (MALS verified), Cat. No. #CDB-H52H3-1mg, ACRO (human) (UniProt P40259); experiment: ELISA on coated antigen, anti-myc detection; 20ug antibody added
[6] = target: T1, Mouse CD79A+CD79B antigen (mouse); experiment: as above
[7] = target: Human CD79A+CD79B antigen (human) (UniProt P11912); experiment: as above
[8] = target: BSA (UniProt P02769); experiment: ELISA on coated BSA control, anti-myc detection; 200ng antibody added
[9] = target: BSA (UniProt P02769); experiment: ELISA on coated BSA control, anti-myc detection; 2ug antibody added
[10] = target: Human CD79B Protein, His Tag (MALS verified), Cat. No. #CDB-H52H3-1mg, ACRO (human) (UniProt P40259); experiment: ELISA on coated antigen, anti-myc detection; 20ng antibody added
[11] = target: T1, Mouse CD79A+CD79B antigen (mouse); experiment: as above
[12] = target: Human CD79A+CD79B antigen (human) (UniProt P11912); experiment: as above
[13] = target: BSA (UniProt P02769); experiment: ELISA on coated BSA control, anti-myc detection; 20ng antibody added
[14] = target: Human CD79B Protein, His Tag (MALS verified), Cat. No. #CDB-H52H3-1mg, ACRO (human) (UniProt P40259); experiment: ELISA on coated antigen, anti-myc detection; 200ng antibody added
[15] = target: T1, Mouse CD79A+CD79B antigen (mouse); experiment: as above
[16] = target: Human CD79A+CD79B antigen (human) (UniProt P11912); experiment: as above
[17] = target: BSA (UniProt P02769); experiment: ELISA on coated BSA control, anti-myc detection; 200pg antibody added
[18] = target: Human CD79B Protein, His Tag (MALS verified), Cat. No. #CDB-H52H3-1mg, ACRO (human) (UniProt P40259); experiment: ELISA on coated antigen, anti-myc detection; 200pg antibody added
[19] = target: T1, Mouse CD79A+CD79B antigen (mouse); experiment: as above
[20] = target: Human CD79A+CD79B antigen (human) (UniProt P11912); experiment: as above
[21] = target: Human CD79B Protein, His Tag (MALS verified), Cat. No. #CDB-H52H3-1mg, ACRO (human) (UniProt P40259); experiment: ELISA on coated antigen, anti-myc detection; 2ug antibody added
[22] = target: T1, Mouse CD79A+CD79B antigen (mouse); experiment: as above
[23] = target: Human CD79A+CD79B antigen (human) (UniProt P11912); experiment: as above
[24] = target: T3, human CD79B antigen (a full-length protein containing signal peptide, UniProt ID: P40259) on cells (human, UniProt P40259 29-229); experiment: flow cytometry on HEK-293T cells overexpressing CD79B-GFP, 0.1 mg/mL, APC-His tag antibody
T3 construct: whole, on cells; Used for the flow cytometry on transfected HEK-293T cells; F2A residues left at the C-terminus after cleavage are not described; also called CD79B-GFP molecule; HEK-293T cells overexpressing the CD79B-GFP molecule
T3 sequence (looked up): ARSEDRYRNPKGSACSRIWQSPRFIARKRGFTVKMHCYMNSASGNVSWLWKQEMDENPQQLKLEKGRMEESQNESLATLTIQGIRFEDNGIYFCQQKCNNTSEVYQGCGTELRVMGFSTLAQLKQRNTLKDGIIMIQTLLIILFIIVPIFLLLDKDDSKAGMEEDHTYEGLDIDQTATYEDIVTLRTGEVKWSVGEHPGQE

[25] = target: BSA (UniProt P02769); experiment: ELISA on coated BSA control, anti-myc detection; 2ng antibody added
[26] = target: BSA (UniProt P02769); experiment: ELISA on coated BSA control, anti-myc detection; 20ug antibody added
[27] = target: T2, Mouse CD79B antigen; experiment: ELISA on coated antigen, anti-myc detection; 2ng antibody added
[28] = target: T2, Mouse CD79B antigen; experiment: ELISA on coated antigen, anti-myc detection; 20ug antibody added
[29] = target: T2, Mouse CD79B antigen; experiment: ELISA on coated antigen, anti-myc detection; 20ng antibody added
[30] = target: T2, Mouse CD79B antigen; experiment: ELISA on coated antigen, anti-myc detection; 200ng antibody added
[31] = target: T2, Mouse CD79B antigen; experiment: ELISA on coated antigen, anti-myc detection; 200pg antibody added
[32] = target: T2, Mouse CD79B antigen; experiment: ELISA on coated antigen, anti-myc detection; 2ug antibody added

BSA, sequence (P02769 25-607 limits assumed): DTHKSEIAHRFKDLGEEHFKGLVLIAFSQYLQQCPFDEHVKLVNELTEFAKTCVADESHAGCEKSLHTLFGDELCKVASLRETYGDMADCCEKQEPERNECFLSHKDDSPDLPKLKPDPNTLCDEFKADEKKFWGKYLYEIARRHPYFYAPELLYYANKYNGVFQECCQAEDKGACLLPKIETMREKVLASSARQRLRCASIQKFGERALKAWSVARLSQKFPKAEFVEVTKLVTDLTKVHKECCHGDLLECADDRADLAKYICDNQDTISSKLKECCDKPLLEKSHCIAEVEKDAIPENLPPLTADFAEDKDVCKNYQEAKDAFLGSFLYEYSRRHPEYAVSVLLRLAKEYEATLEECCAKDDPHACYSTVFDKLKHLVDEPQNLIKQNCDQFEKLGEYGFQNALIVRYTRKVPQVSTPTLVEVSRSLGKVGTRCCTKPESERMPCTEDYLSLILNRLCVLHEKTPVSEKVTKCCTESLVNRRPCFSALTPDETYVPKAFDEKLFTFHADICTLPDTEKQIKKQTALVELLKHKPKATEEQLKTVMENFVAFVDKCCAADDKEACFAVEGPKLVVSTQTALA

B1: anti-CD79B single-domain antibody JYB14 (VHH)
VHH: DVQLQESGGGLVQPGGSLSLTCTASISSLTIWVRAWHRQAPGKQRELVAAINSDGQTMYADSVKGRFTISRDNAKTTVSLQMDSLKPEDTAVYYCNVVTPNGQQYWGQGTQVTVSS
notes: Alpaca VHH from a phage library; ELISA detected with an anti-myc antibody; a myc tag is not described; not shown: His-tag protein at the C-terminal end
In the case of B1, the OD450 nm [1] is reported as 0.0507 OD450, the OD450 nm [2] is reported as 0.0584 OD450 and the OD450 nm [3] is reported as 0.0603 OD450. The binding result [4] was “no binding (tested: 20ug)”, the OD450 nm [5] was 0.495 OD450 and the OD450 nm [6] was 0.117 OD450. For the same binder, the OD450 nm [7] was 0.855 OD450, the OD450 nm [8] was 0.0493 OD450 and the OD450 nm [9] was 0.0506 OD450. It also gave an OD450 nm [10] of 0.139 OD450, an OD450 nm [11] of 0.0578 OD450 and an OD450 nm [12] of 0.116 OD450. It also gave an OD450 nm [13] of 0.0476 OD450, an OD450 nm [14] of 0.321 OD450 and an OD450 nm [15] of 0.0597 OD450. The OD450 nm [16] was 0.421 OD450, the OD450 nm [17] was 0.0489 OD450 and the OD450 nm [18] was 0.0501 OD450. For the same binder, the OD450 nm [19] was 0.0609 OD450, the OD450 nm [20] was 0.0561 OD450 and the OD450 nm [21] was 0.346 OD450. For the same binder, the OD450 nm [22] was 0.0726 OD450, the OD450 nm [23] was 0.634 OD450 and the binding result [24] was “binds”. It also gave an OD450 nm [25] of 0.0474 OD450 and an OD450 nm [26] of 0.0489 OD450.

B2: anti-CD79B single-domain antibody JYB8 (VHH, not shown: small tags and cut ends)
VHH: DVQLQESGGGLMQPGGSLSLTCTASISSLSIWVRAWHRQAPGKQRELVAAINSDGQTMYADSVKGRFTISRDSAKTTVSLQMDSLKPEDTAVYYCNVVTPKGQQYWGQGTQVTVSS
Binder B2 has an OD450 nm [1] of 0.06 OD450, an OD450 nm [2] of 0.0543 OD450 and an OD450 nm [3] of 0.0544 OD450. For the same binder, the OD450 nm [27] was 0.0512 OD450, the OD450 nm [5] was 0.596 OD450 and the OD450 nm [6] was 0.356 OD450. For the same binder, the OD450 nm [7] was 0.922 OD450, the OD450 nm [28] was 0.229 OD450 and the OD450 nm [8] was 0.052 OD450. For the same binder, the OD450 nm [9] was 0.0582 OD450, the OD450 nm [10] was 0.145 OD450 and the OD450 nm [11] was 0.0553 OD450. For the same binder, the OD450 nm [12] was 0.115 OD450, the OD450 nm [29] was 0.0551 OD450 and the OD450 nm [13] was 0.0554 OD450. It also gave an OD450 nm [14] of 0.308 OD450, an OD450 nm [15] of 0.068 OD450 and an OD450 nm [16] of 1.43 OD450. The OD450 nm [30] was 0.0622 OD450, the OD450 nm [17] was 0.0534 OD450 and the OD450 nm [18] was 0.0418 OD450. It also gave an OD450 nm [19] of 0.0619 OD450, an OD450 nm [20] of 0.0521 OD450 and an OD450 nm [31] of 0.0485 OD450. For the same binder, the OD450 nm [21] was 0.506 OD450, the OD450 nm [22] was 0.206 OD450 and the OD450 nm [23] was 0.802 OD450. The OD450 nm [32] was 0.178 OD450, the OD450 nm [25] was 0.0474 OD450 and the OD450 nm [26] was 0.0537 OD450.
